Measurements: article PMC7659722 (The Journal of Cell Biology, 2020)

Biological target: the molecule itself
Assay: SDS-PAGE

B1: recombinant human FIT2 WT, 3FLAG-tagged (enzyme, UniProt Q8N6M3 1-262, looked up)
chain: MEHLERCEWLLRGTLVRAAVRRYLPWALVASMLAGSLLKELSPLPESYLSNKRNVLNVYFVKVAWAWTFCLLLPFIALTNYHLTGKAGLVLRRLSTLLVGTAIWYICTSIFSNIEHYTGSCYQSPALEGVRKEHQSKQQCHQEGGFWHGFDISGHSFLLTFCALMIVEEMSVLHEVKTDRSHCLHTAITTLVVALGILTFIWVLMFLCTAVYFHNLSQKVFGTLFGLLSWYGTYGFWYPKAFSPGLPPQSCSLNLKQDSYKK
  binding result: binds
